The target of the assay is T1, GBP1^LG-MD (LG-MD region of guanylate-binding protein 1, residues 1-479) (human, UniProt P32455 1-479).
T1 construct: also called C-terminally truncated GBP1; source: E. coli BL21(DE3), purified (Ni-NTA, ULP1 cleavage, second Ni-NTA, Superdex 200); not shown: His6-SUMO, N-terminal, cleaved
T1 sequence: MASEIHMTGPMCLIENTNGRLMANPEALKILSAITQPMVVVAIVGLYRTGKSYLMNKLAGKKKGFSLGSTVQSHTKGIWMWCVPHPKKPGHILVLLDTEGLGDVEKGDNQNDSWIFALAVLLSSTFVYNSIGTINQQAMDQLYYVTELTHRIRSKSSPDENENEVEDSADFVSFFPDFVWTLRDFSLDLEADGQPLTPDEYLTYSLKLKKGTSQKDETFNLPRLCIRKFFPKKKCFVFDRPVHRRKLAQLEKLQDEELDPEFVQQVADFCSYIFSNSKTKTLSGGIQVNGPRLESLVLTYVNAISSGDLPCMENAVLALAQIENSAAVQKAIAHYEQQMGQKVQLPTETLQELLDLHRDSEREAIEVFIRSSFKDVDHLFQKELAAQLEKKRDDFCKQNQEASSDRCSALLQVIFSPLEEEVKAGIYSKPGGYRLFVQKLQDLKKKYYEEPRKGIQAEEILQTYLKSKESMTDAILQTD
In words: crystal structure; purified IpaH9.8^LRR and GBP1^LG-MD incubated overnight on ice at a 1.5:1 molar ratio, passed through Superdex 200 (25 mM Tris-HCl pH 8.0, 20 mM NaCl, 2 mM DTT), no nucleotide; crystals at 20°C in 1.6 M sodium/potassium phosphate pH 6.5; 3.6 Å. To be noted: both partners purified.

B1: IpaH9.8^LRR (Leucine-rich repeat domain of IpaH9.8, residues 22-252) (domain or fragment)
chain: TYADYFSAWDKWEKQALPGEERDEAVSRLKECLINNSDELRLDRLNLSSLPDNLPAQITLLNVSYNQLTNLPELPVTLKKLYSASNKLSELPVLPPALESLQVQHNELENLPALPDSLLTMNISYNEIVSLPSLPQALKNLRATRNFLTELPAFSEGNNPVVREYFFDRNQISHIPESILNLRNECSIHISDNPLSSHALPALQRLTSSPDYHGPRIYFSMSDGQQNTLHR
notes: E3 ubiquitin ligase IpaH9.8, Shigella flexneri, LRR domain, residues 22-252; source: E. coli BL21(DE3), purified (Ni-NTA, ULP1 cleavage, second Ni-NTA, Superdex 200); not shown: His6-SUMO, N-terminal, cleaved
Take B1: the binding result was “binds”.

The record behind these values is paper PMC6602295, “Structural mechanism for guanylate-binding proteins (GBPs) targeting by the Shigella E3 ligase IpaH9.8” (PLoS Pathogens, 2019).
